Test results reported in patent publication US20230220589A1.

B1: engineered M44-L binder (SEQ ID NO: 31) (designed binder, not shown: small tags and cut ends; large carriers)
chain: QDSTQNLIPAPPLISVPLQPGFWTERFQGRWFLVGFAGNAVQKERQSRLTMQSLILELQEDNSYNITAINVRGQGCRYIISTLVPSSRPGQFTLGNIHSYPQIQSLDVQVADTDYDQFAMVFLQGTSENKQYFEVALAGRTKGLSDELKERFVSFAKSLGLKDNNIVFSVPTDQCIDN
B2: engineered M44-L binder (SEQ ID NO: 21) (designed binder, not shown: small tags and cut ends; large carriers)
chain: QVSVQPNFQQDKFLGRWFYAGHASNSSWYREKVAALSMAKLVVAPATDGGLNATETFLRKNQCETITSLLQPAGSLGSYSSRSPHGGSTWSTSVVETDYDQYALLYLQGSKGPGEDFRGAILASRTQTPRAELKEKFTAFSKAQGFTEDTIVFLPQTDKCMTEQ
B3: engineered M44-A binder (SEQ ID NO: 42) (designed binder, not shown: small tags and cut ends; large carriers)
chain: QVSVQPNFQQDKFLGRWFVAGLASNSSWDREKVAALSGAKMVVAPATDGGLNVTRTMLRKNQCETYTGLLQPAGSLGSYSWRSPHPGSTGSESVVETDYDQYALVYGQGSKGPGEDLRAAALWSRTQTPRAELKEKFTAFSKAQGFTEDTIVFLPQTDKCMTEQ

These binders were tested against M44-modified M NTAA target peptides (assay: encoding assay; P2 S).
For B1, the encoding yield was 0.07. B2 was tested, and the encoding yield was 0.07. For B3, the encoding yield was 0.05.

These binders were tested against M44-modified Q NTAA target peptides (assay: encoding assay; P2 S).
Binder B1 has an encoding yield of 0.02. In the case of B2, the encoding yield is reported as 0.01. With B3 the encoding yield was 0.03.

These binders were tested against M44-modified L NTAA target peptides (M44-L-P2-peptide) (assay: encoding assay; P2 S;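 also: fraction of recording tags encoded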).
In the case of B1, the encoding yield is reported as 0.15. Binder B2 has an encoding yield of 0.27. For B3, the encoding yield was 0.05.

The binders below were run against M44-modified A NTAA target peptides (M44-A-P2-peptide) (assay: encoding assay; P2 S).
For B1, the encoding yield was 0.02. In the case of B2, the encoding yield is reported as 0.01. For B3, the encoding yield was 0.1.

These binders were tested against M44-modified Y NTAA target peptides (M44-Y-P2-peptide) (assay: encoding assay; P2 S;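 also: fraction of recording tags encoded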).
With B1 the encoding yield was 0.07. In the case of B2, the encoding yield is reported as 0.04. For B3, the encoding yield was 0.06.

These binders were tested against M44-modified G NTAA target peptides (M44-G-P2-peptide) (assay: encoding assay; P2 S;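 also: fraction of recording tags encoded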).
For B1, the encoding yield was 0.04. With B2 the encoding yield was 0.01. In the case of B3, the encoding yield is reported as 0.05.

What follows are binders tested against M44-modified F NTAA target peptides (M44-F-P2-peptide) (assay: encoding assay; P2 S;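 also: fraction of recording tags encoded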).
Work on B1 yielded an encoding yield of 0.06. For B2, the encoding yield was 0.07. B3 showed an encoding yield of 0.03.

Each binder was assayed against M44-modified P NTAA target peptides (assay: encoding assay; P2 S;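 also: fraction of recording tags encoded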).
B1 showed an encoding yield of 0.01. B2 was tested, and the encoding yield was 0.01. B3 was tested, and the encoding yield was 0.01.

The binders below were run against M44-modified T NTAA target peptides (assay: encoding assay; P2 S).
For B1, the encoding yield was 0.03. With B2 the encoding yield was 0.01. Binder B3 has an encoding yield of 0.06.

These binders were tested against M44-modified H NTAA target peptides (assay: encoding assay; P2 S).
Work on B1 yielded an encoding yield of 0.03. With B2 the encoding yield was 0.01. B3 gave an encoding yield of 0.01.

Each binder was assayed against M44-modified I NTAA target peptides (M44-I-P2-peptide) (assay: encoding assay; P2 S).
Binder B1 has an encoding yield of 0.07. In the case of B2, the encoding yield is reported as 0.18. With B3 the encoding yield was 0.03.

What follows are binders tested against M44-modified V NTAA target peptides (assay: encoding assay; P2 S;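 also: fraction of recording tags encoded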).
B1 showed an encoding yield of 0.03. B2 was tested, and the encoding yield was 0.04. With B3 the encoding yield was 0.03.

The binders below were run against M44-modified M NTAA target peptides (assay: encoding assay; P2 P).
With B1 the encoding yield was 0.02. B2 showed an encoding yield of 0.04. For B3, the encoding yield was 0.02.

The binders below were run against M44-modified Q NTAA target peptides (assay: encoding assay; P2 P).
With B1 the encoding yield was 0.02. In the case of B2, the encoding yield is reported as 0.01. Binder B3 has an encoding yield of 0.03.

Each binder was assayed against M44-modified L NTAA target peptides (M44-L-P2-peptide) (assay: encoding assay; P2 P;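 also: fraction of recording tags encoded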).
B1 was tested, and the encoding yield was 0.07. B2 was tested, and the encoding yield was 0.09. B3 was tested, and the encoding yield was 0.04.

The binders below were run against M44-modified D NTAA target peptides (assay: encoding assay; P2 P;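 also: fraction of recording tags encoded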).
In the case of B1, the encoding yield is reported as 0.02. For B2, the encoding yield was 0.01. B3 was tested, and the encoding yield was 0.04.

Each binder was assayed against M44-modified A NTAA target peptides (M44-A-P2-peptide) (assay: encoding assay; P2 P).
In the case of B1, the encoding yield is reported as 0.03. Binder B2 has an encoding yield of 0.01. Work on B3 yielded an encoding yield of 0.03.

These binders were tested against M44-modified Y NTAA target peptides (M44-Y-P2-peptide) (assay: encoding assay; P2 P;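 also: fraction of recording tags encoded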).
Binder B1 has an encoding yield of 0.03. For B2, the encoding yield was 0.02. B3 showed an encoding yield of 0.02.

Each binder was assayed against M44-modified F NTAA target peptides (M44-F-P2-peptide) (assay: encoding assay; P2 P;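 also: fraction of recording tags encoded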).
In the case of B1, the encoding yield is reported as 0.08. B2 gave an encoding yield of 0.09. B3 gave an encoding yield of 0.04.

The binders below were run against M44-modified H NTAA target peptides (assay: encoding assay; P2 P).
Binder B1 has an encoding yield of 0.03. Binder B2 has an encoding yield of 0.01. In the case of B3, the encoding yield is reported as 0.04.

What follows are binders tested against M44-modified N NTAA target peptides (assay: encoding assay; P2 P).
B1 gave an encoding yield of 0.02. Binder B2 has an encoding yield of 0.01. B3 gave an encoding yield of 0.02.

What follows are binders tested against M44-modified I NTAA target peptides (M44-I-P2-peptide) (assay: encoding assay; P2 P).
With B1 the encoding yield was 0.06. Binder B2 has an encoding yield of 0.01. B3 was tested, and the encoding yield was 0.03.

The binders below were run against M44-modified E NTAA target peptides (assay: encoding assay; P2 P;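 also: fraction of recording tags encoded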).
In the case of B1, the encoding yield is reported as 0.02. B2 gave an encoding yield of 0.01. In the case of B3, the encoding yield is reported as 0.03.

The binders below were run against M44-modified S NTAA target peptides (assay: encoding assay; P2 P).
B1 was tested, and the encoding yield was 0.04. B2 showed an encoding yield of 0.02. With B3 the encoding yield was 0.05.

These binders were tested against M44-modified M NTAA target peptides (assay: encoding assay; P2 F).
B1 was tested, and the encoding yield was 0.1. Work on B2 yielded an encoding yield of 0.05. Work on B3 yielded an encoding yield of 0.09.

Each binder was assayed against M44-modified Q NTAA target peptides (assay: encoding assay; P2 F).
Work on B1 yielded an encoding yield of 0.02. Binder B2 has an encoding yield of 0.01. B3 gave an encoding yield of 0.03.

Each binder was assayed against M44-modified D NTAA target peptides (assay: encoding assay; P2 F;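 also: fraction of recording tags encoded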).
For B1, the encoding yield was 0.03. For B2, the encoding yield was 0.01. B3 gave an encoding yield of 0.03.

Each binder was assayed against M44-modified Y NTAA target peptides (M44-Y-P2-peptide) (assay: encoding assay; P2 F;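 also: fraction of recording tags encoded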).
Binder B1 has an encoding yield of 0.12. Binder B2 has an encoding yield of 0.02. With B3 the encoding yield was 0.05.

The binders below were run against M44-modified G NTAA target peptides (M44-G-P2-peptide) (assay: encoding assay; P2 F;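 also: fraction of recording tags encoded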).
Binder B1 has an encoding yield of 0.04. For B2, the encoding yield was 0.02. Work on B3 yielded an encoding yield of 0.1.

The binders below were run against M44-modified F NTAA target peptides (M44-F-P2-peptide) (assay: encoding assay; P2 F;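 also: fraction of recording tags encoded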).
Binder B1 has an encoding yield of 0.09. Binder B2 has an encoding yield of 0.01. In the case of B3, the encoding yield is reported as 0.03.

These binders were tested against M44-modified P NTAA target peptides (assay: encoding assay; P2 F;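 also: fraction of recording tags encoded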).
B1 showed an encoding yield of 0.02. B2 was tested, and the encoding yield was 0.01. With B3 the encoding yield was 0.02.

These binders were tested against M44-modified T NTAA target peptides (assay: encoding assay; P2 F).
Work on B1 yielded an encoding yield of 0.04. For B2, the encoding yield was 0.02. Binder B3 has an encoding yield of 0.25.

These binders were tested against M44-modified H NTAA target peptides (assay: encoding assay; P2 F).
In the case of B1, the encoding yield is reported as 0.04. With B2 the encoding yield was 0.02. For B3, the encoding yield was 0.04.

What follows are binders tested against M44-modified N NTAA target peptides (assay: encoding assay; P2 F).
B1 gave an encoding yield of 0.05. With B2 the encoding yield was 0.01. Work on B3 yielded an encoding yield of 0.03.

These binders were tested against M44-modified I NTAA target peptides (M44-I-P2-peptide) (assay: encoding assay; P2 F).
For B1, the encoding yield was 0.08. Binder B2 has an encoding yield of 0.07. In the case of B3, the encoding yield is reported as 0.07.

What follows are binders tested against M44-modified W NTAA target peptides (assay: encoding assay; P2 F;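 also: fraction of recording tags encoded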).
Binder B1 has an encoding yield of 0.09. B2 showed an encoding yield of 0.02. B3 was tested, and the encoding yield was 0.03.

The binders below were run against M44-modified E NTAA target peptides (assay: encoding assay; P2 F;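 also: fraction of recording tags encoded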).
For B1, the encoding yield was 0.03. B2 showed an encoding yield of 0.01. For B3, the encoding yield was 0.04.

The binders below were run against M44-modified V NTAA target peptides (assay: encoding assay; P2 F;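 also: fraction of recording tags encoded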).
B1 gave an encoding yield of 0.03. B2 showed an encoding yield of 0.01. With B3 the encoding yield was 0.13.

What follows are binders tested against M44-modified S NTAA target peptides (assay: encoding assay; P2 F).
Binder B1 has an encoding yield of 0.04. In the case of B2, the encoding yield is reported as 0.01. B3 was tested, and the encoding yield was 0.18.

These binders were tested against M44-modified M NTAA target peptides (assay: encoding assay; P2 Q).
In the case of B1, the encoding yield is reported as 0.01. B2 gave an encoding yield of 0. B3 was tested, and the encoding yield was 0.01.

What follows are binders tested against M44-modified Q NTAA target peptides (assay: encoding assay; P2 Q).
With B1 the encoding yield was 0.01. In the case of B2, the encoding yield is reported as 0.01. For B3, the encoding yield was 0.02.

What follows are binders tested against M44-modified L NTAA target peptides (M44-L-P2-peptide) (assay: encoding assay; P2 Q;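 also: fraction of recording tags encoded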).
B1 showed an encoding yield of 0.12. B2 showed an encoding yield of 0.02. B3 gave an encoding yield of 0.04.

Each binder was assayed against M44-modified D NTAA target peptides (assay: encoding assay; P2 Q;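 also: fraction of recording tags encoded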).
With B1 the encoding yield was 0.01. In the case of B2, the encoding yield is reported as 0.01. With B3 the encoding yield was 0.03.

Each binder was assayed against M44-modified A NTAA target peptides (M44-A-P2-peptide) (assay: encoding assay; P2 Q).
Binder B1 has an encoding yield of 0.04. B2 showed an encoding yield of 0.02. Binder B3 has an encoding yield of 0.22.

The binders below were run against M44-modified F NTAA target peptides (M44-F-P2-peptide) (assay: encoding assay; P2 Q;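 also: fraction of recording tags encoded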).
Binder B1 has an encoding yield of 0.04. B2 was tested, and the encoding yield was 0.01. With B3 the encoding yield was 0.03.

These binders were tested against M44-modified H NTAA target peptides (assay: encoding assay; P2 Q).
For B1, the encoding yield was 0.04. For B2, the encoding yield was 0.01. B3 was tested, and the encoding yield was 0.04.

Each binder was assayed against M44-modified N NTAA target peptides (assay: encoding assay; P2 Q).
With B1 the encoding yield was 0.02. Work on B2 yielded an encoding yield of 0.01. B3 showed an encoding yield of 0.05.

These binders were tested against M44-modified I NTAA target peptides (M44-I-P2-peptide) (assay: encoding assay; P2 Q).
Binder B1 has an encoding yield of 0.03. For B2, the encoding yield was 0. In the case of B3, the encoding yield is reported as 0.02.

These binders were tested against M44-modified E NTAA target peptides (assay: encoding assay; P2 Q;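 also: fraction of recording tags encoded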).
With B1 the encoding yield was 0.02. With B2 the encoding yield was 0.01. For B3, the encoding yield was 0.04.

What follows are binders tested against M44-modified V NTAA target peptides (assay: encoding assay; P2 Q;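 also: fraction of recording tags encoded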).
In the case of B1, the encoding yield is reported as 0.03. For B2, the encoding yield was 0.01. B3 gave an encoding yield of 0.06.

Each binder was assayed against M44-modified S NTAA target peptides (assay: encoding assay; P2 Q).
Binder B1 has an encoding yield of 0.04. Work on B2 yielded an encoding yield of 0.01. For B3, the encoding yield was 0.05.
